Target: trypsin (trypsin-EDTA 0.25%, Sigma-Aldrich)
Experiment: cell-based or functional assay

change in FITC fluorescence signal (dequenching): > 34 fold
Substance: PLL-FITC (poly-L-lysine conjugated with fluorescein isothiocyanate, FITC/PLL=10/1)

— patent US20130251640A1
